Drawing on publication PMC10880117, this text covers pseudo-Km of DnaJB4-stimulated ATPase activity (malachite green assay, 1 μM HSC70 titrated with DnaJB4, 37°C, Michaelis-Menten fit) and stimulation of ATPase activity (malachite green assay, normalised percent) as BAG1 is titrated into HSC70 (1 μM) and DnaJB4 (0.1 μM); value for 2 molecules.

The target in assay [1] is Human WT HSC70 (HSPA8) (human) (UniProt P11142).
In assay [2] the target is Human V95E HSC70 (HSPA8) (human) (UniProt P11142).

For the molecule “DnaJB4 (from UniProt Q9UDY4 1-337) (natural protein)”, the pseudo-Km of DnaJB4-stimulated ATPase activity (malachite green assay, 1 μM HSC70 titrated with DnaJB4, 37°C, Michaelis-Menten fit) was found to be 0.092 µM in assay [1] and 0.088 µM in assay [2].

B1: BAG1 (natural protein)
chain: MAQRGGARRPRGDRERLGSRLRALRPGREPRQSEPPAQRGPPPSGRPPARSTASGHDRPTRGAAAGARRPRMKKKTRRRSTRSEELTRSEELTLSEEATWSEEATQSEEATQGEEMNRSQEVTRDEESTRSEEVTREEMAAAGLTVTVTHSNEKHDLHVTSQQGSSEPVVQDLAQVVEEVIGVPQSFQKLIFKGKSLKEMETPLSALGIQDGCRVMLIGKKNSPQEEVELKKLKHLEKSVEKIADQLEELNKELTGIQQGFLPKDLQAEALCKLDRRVKATIEQFMKILEEIDTLILPENFKDSRLKRKGLVKKVQAFLAECDTVEQNICQETERLQSTNFALAE
As for B1, the stimulation of ATPase activity (malachite green assay, normalised percent) as BAG1 is titrated into HSC70 (1 μM) and DnaJB4 (0.1 μM); value at the highest concentration tested in assay [2] was 25%.
